According to US11110171B2, “PD-1 related cancer therapy” (New York University, priority 2017, dated 2021):

Target: T1, SHP2PTP (GST tagged SHP2 catalytic domain) (Homo sapiens, UniProt Q06124)
T1 construct: a fixed amount of purified GST-WT SHP2 catalytic domain (0.2 ug) was incubated with variable concentrations; purchased Abcam 42578
T1 sequence (Q06124 247-517 limits assumed): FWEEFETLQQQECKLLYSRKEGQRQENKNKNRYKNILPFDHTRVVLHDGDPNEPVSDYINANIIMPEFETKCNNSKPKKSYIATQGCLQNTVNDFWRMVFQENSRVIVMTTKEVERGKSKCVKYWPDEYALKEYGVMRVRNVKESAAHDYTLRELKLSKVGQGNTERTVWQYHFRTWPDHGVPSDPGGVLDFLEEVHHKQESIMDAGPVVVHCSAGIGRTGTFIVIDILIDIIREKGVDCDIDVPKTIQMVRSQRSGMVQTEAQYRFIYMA
Assay: Malachite Green phosphatase assay of SHP2 catalytic domain with phosphotyrosyl peptide substrates
Assay type: biochemical
Conditions: for increase of Km of SHP2-mediated dephosphorylation in the presence of SAP: SAP 1 uM or 10 uM
Experimental: FIG. 4. SAP inhibits SHP2 activity. […] At this time, the cells were harvested, and analyzed by immunoblotting, as indicated. (b) Jurkat T cells, transfected with siRNA for SAP (SAP KD) and non-targeting control (Control), were treated with pervanadate to induce maximal phosphorylation, followed by five serial washes, lysis and diafiltration to remove the drug and to exchange the buffer to a phosphatase-compatible buffer. SHP2^PTP (GST tagged SHP2 catalytic domain) was then added to the cell lysates for one hour, at the indicated concentrations, followed by immunoblotting with anti-phosphotyrosine antibody (4G10). (c) Densitometry values of all the phophotyrosine containing proteins shown at b. All values are relative to the baseline condition (without SHP2^PTP). […] (e-g) Enzymatic activity of SHP2^PTP was measured using a Malachite Green assay, with p60-SRC (e), SLAMF5 Y279 (f), CD3 Y142 (g), CD28 Y172 (h), and CD28 Y190 (i) peptides as substrates. Substrate titrations of SHP2P (dark circles) at baseline (control), or in the presence of SAP 1 uM (white circles) or SAP 10 uM (crossed circles) are shown. Curves are fitted using the Michelis-Menten equation and derived Km values are shown. The data points represent the mean of three measurements. (j) A diagram describing the shielding model. Data are represented as mean±SEM. * or ** represent significant differences between the denoted group and the anti-CD3 treated cells in a, or between SAP deficient cells and control cells in e; * <0.05, ** P<0.01, n=4, unpaired t test.
First, SAP could bind SHP2 and directly block the SHP2 catalytic site, or alternatively, SAP might not bind to SHP2, but rather could bind to its substrates and thereby block the interaction between SHP2 and its enzymatic substrates. […] To test the effect of SAP on SHP2 mediated dephosphorylation events, we measured SHP2-mediated dephosphorylation of p60-SRC Y416 (FIG. 4e), SLAMF5 Y279 (FIG. 4f), and CD3 Y142 (FIG. 4g) phosphotyrosyl peptides by Malachite Green assays. […]
To determine kinetic parameters, a fixed amount of purified GST-WT SHP2 catalytic domain was incubated with variable concentrations of substrates in (GenScript) in PTP assay buffer (Phosphatase assay kit; Upstate 17-313). […] release was quantified by adding Malachite Green (Malachite Green phosphatase detection kit; R&D DY996).
293T cells were transfected with pMSCV-SHP2, pMSCV empty vector, PD1-WT-GFP, PD1-Y223F-GFP or PD1-Y248F-GFP for 48 hours, followed by pervanadate treatment and immunoprecipitation using anti-GFP mAb-Agarose. The anti-GFP mAb-Agarose beads that were used for immunoprecipitation were then used for a pull-down of the SHP2/null transfected cells, and phosphatase activity on the beads was assessed using pNPP (Sigma). […]

B1: SAP: Recombinant human SAP (His tagged), signaling lymphocytic activation molecule-associated protein, purchased from Abcam (protein, UniProt O60880 1-128, looked up)
SH2 domain-containing protein …: MDAVAVYHGKISRETGEKLLLATGLDGSYLLRDSESVPGVYCLCVLYHGYIYTYRVSQTETGSWSAETAPGVHKRYFRKIKNLISAFQKPDQGIVIPLQYPVEKKSSARSTQGTTGIREDPDVCLKAP
modifications: His tag
Vmax of SHP2-mediated dephosphorylation in the presence of SAP (all three phosphotyrosyl peptides (p60-SRC, SLAMF5, CD3)): unaffected
increase of Km of SHP2-mediated dephosphorylation in the presence of SAP (substrate phosphorylated CD3 Y142 peptide): 2-3 fold
increase of Km of SHP2-mediated dephosphorylation in the presence of SAP (substrate phosphorylated SLAMF5 Y279 peptide): 2-3 fold
inhibition of SHP2-mediated dephosphorylation of the tail of CD28 (substrates CD28 Y173 and CD28 Y190 peptides): predominantly inhibited dephosphorylation of CD28 Y173 over CD28 Y190
